Test [1] addresses 9C2 (Vγ5Vδ1) γδ TCR/CD3 complex, full length (human) (UniProt B7Z8K6). Description: cryo-EM structure.
For test [2], the target named is G115 (Vγ9Vδ2) γδ TCR/CD3 complex, full length (human) (UniProt A0JD36). As to the kind of experiment: cryo-EM structure.
Chain of UniProt A0JD36 (A0JD36 whole entry, looked up, stated change not applied, one chain of several): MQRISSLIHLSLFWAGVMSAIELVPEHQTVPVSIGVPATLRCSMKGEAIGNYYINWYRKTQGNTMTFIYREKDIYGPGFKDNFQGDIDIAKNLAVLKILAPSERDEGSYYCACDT

One may read the stoichiometry N as the number of molecules, sites or subunits per partner or assembly. “9C2 (Vγ5Vδ1) γδ TCR/CD3 complex, full length (from UniProt B7Z8K6;P0CF51;P07766;P09693;P04234;P20963)” came in with a stoichiometry N in test [1] of 2. In the case of OKT3 Fab, the stoichiometry N in test [2] was determined as 2.
